Assay results from the FLAb antibody collection (doi:10.7554/elife.23156).

B1: scFv; the commonest letter at each place (parent)
chain 1: EVKLDETGGGLVQPGRPMKLSCVASGFTFSDYWMNWVRQSPEKGLEWVAQIRNKPYNYETYYSDSVKGRFTISRDDSKSSVYLQMNNLRVEDMGIYYCTGSYYGMDYWGQGTSVTVS
chain 2: DVVMTQTPLSLPVSLGDQASISCRSSQSLVHSNGNTYLRWYLQKPGQSPKVLIYKVSNRFSGVPDRFSGSGSGTDFTLKISRVEAEDLGVYFCSQSTHVPWTFGGGTKLEIK

Legend:
[1] = variants of: B1; assay: Kd (Tite-Seq); conditions: with fluorescein; format: scFv 4-4-20, heavy + light
[2] = variants of: B1; assay: yeast surface expression (ratio to wild type); higher = more expressed; conditions: format: scFv 4-4-20, heavy + light

Variant	Kd [1]	yeast surface expression [2]
chain 1 G104F W108T	≥ 10 µM	0.194
chain 1 S101G	≥ 10 µM	0.901
chain 1 W108D G109I	≥ 10 µM	0.209
chain 1 S30V Y32D	≥ 10 µM	0.745
chain 1 Y32K W33I	≥ 10 µM	0.763
chain 1 T28E M34S	0.0592 µM	0.742
chain 1 F29M W33V	≥ 10 µM	0.982
chain 1 G100W S101L	≥ 10 µM	0.293
chain 1 S101V M105N	≥ 10 µM	0.675
chain 1 T28K D31I	≥ 10 µM	0.645
chain 1 G100Q	≥ 10 µM	0.476
chain 1 Y103D	0.0445 µM	1.21
chain 1 S101Q Y102D W108I	≥ 10 µM	0.495
chain 1 D31R W33S M34P	≥ 10 µM	0.182
chain 1 G100D G109N	≥ 10 µM	0.118
chain 1 G104M Y107H	≥ 10 µM	0.555
chain 1 Y107P G109N	≥ 10 µM	0.355
chain 1 M34Y	0.0107 µM	1.05
chain 1 S30Q W33S	≥ 10 µM	0.902
chain 1 Y103D D106R	≥ 10 µM	0.454

Variant	Kd [1]	yeast surface expression [2]
chain 1 F29A S30V	3.94 µM	0.758
chain 1 M34C N35L V37F	0.0657 µM	0.501
chain 1 Y32I W36G	≥ 10 µM	0.465
chain 1 D106A Y107F	1.91 µM	0.508
chain 1 M34P N35L	≥ 10 µM	0.779
chain 1 M34P N35R	≥ 10 µM	1.16
chain 1 Y32H W36F	0.676 µM	0.839
chain 1 Y103D G104Y	≥ 10 µM	0.898
chain 1 M105S G109H	≥ 10 µM	0.261
chain 1 S30A V37Y	0.0391 µM	1.1
chain 1 G104S Y107G	≥ 10 µM	0.303
chain 1 S101Y G104C	≥ 10 µM	0.249
chain 1 T28R	0.00138 µM	0.917
chain 1 Y32T V37A	≥ 10 µM	0.65
chain 1 Y102L D106W	≥ 10 µM	0.238
chain 1 Y32F W33Y	≥ 10 µM	0.757
chain 1 M105A G109F	≥ 10 µM	0.203
chain 1 D31P V37W	≥ 10 µM	0.565
chain 1 S30D W36V	≥ 10 µM	0.766
chain 1 D31G W33P	≥ 10 µM	0.569

Variant	Kd [1]	yeast surface expression [2]
chain 1 S30E M34T W36T	≥ 10 µM	0.353
chain 1 T28Q V37L	3.55 µM	0.864
chain 1 Y102H W108A	0.0146 µM	0.528
chain 1 F29Q S30Q	0.0146 µM	0.966
chain 1 T28V F29D	≥ 10 µM	0.952
chain 1 G100K M105D	≥ 10 µM	0.375
chain 1 Y103K G104I	≥ 10 µM	0.711
chain 1 Y32A M34S	≥ 10 µM	0.769
chain 1 T28K W36R	0.0507 µM	0.393
chain 1 Y32E W36Q	0.216 µM	0.493
chain 1 S30H W33A	≥ 10 µM	0.733
chain 1 S30V D31M	0.0372 µM	0.223
chain 1 F29T	0.00941 µM	0.981
chain 1 M105S D106S	6.96 µM	0.843
chain 1 Y102E G104E	≥ 10 µM	0.934
chain 1 T28N M34E V37L	≥ 10 µM	0.571
chain 1 F29C W33G	≥ 10 µM	0.544
chain 1 G100A S101L	≥ 10 µM	0.553
